B1: Carboxypeptidase Y-deficient protein 8 (Saccharomyces cerevisiae), P40335 (parent)
chain: MSIFFKPPIDIEILFDNEESRKHVDIATRSSNSSYKSMKESLPVYEDGESLGGIVTLRVRDSKKVDHLGIKVSVIGSIDMLKSHGSGNSSSKKVTSSTSSSSSNGSVDVRKNSVDQFLCQSYDLCPAGELQHSQSFPFLFRDLSKRYESYKGKNVDVAYYVKVTVMRKSTDISKIKRFWVYLYNSVTTAPNTLSANETKATTNDIAGGNYAADNASDNTQTKSTQGEAADVNQVLPISHSNNEPKPVRLDIGIENCLHIEFEYAKSQYSLKEVIVGRIYFLLTRLRIKHMELSLITRESSGLQTSNVMTDSTAIRYEIMDGSSVKGETIPIRLFLSGYDLTPNMSCNYFNVKNYLSLVIIDEDGRRYFKQSEITLYRTR

The assay covers variants of B1. Particulars: with vps35_human VPS35, Q96QK1.
For I318D;M319D, the “effect of a mutation on the interaction” value is “disrupting interaction”.

The values above are taken from IntAct's records for PubMed 16732284.
